Experiment in all cases: cryo-EM structure
For assay [1], the target named is D7324-tagged Delta S (soluble SARS-CoV-2 Delta spike, 6P version) (SARS-CoV-2) (UniProt P0DTC2).
In assay [2] the target is His-tagged BA.1 S (soluble SARS-CoV-2 Omicron BA.1 spike, 6P version) (SARS-CoV-2) (UniProt P0DTC2).
Assay [3] addresses StrepII-tagged Wu1 S (soluble SARS-CoV-2 Wuhan-Hu-1 spike, 6P version) (SARS-CoV-2) (UniProt P0DTC2).

For the substance “D7324-tagged Delta S (soluble SARS-CoV-2 Delta spike, 6P version) (from UniProt P0DTC2 14-1273) (natural protein)”, in assay [1], the stoichiometry N – broadly, a count of units in the complex or per binding partner – was found to be 3.
In assay [2], “His-tagged BA.1 S (soluble SARS-CoV-2 Omicron BA.1 spike, 6P version) (from UniProt P0DTC2 14-1273) (natural protein)” yielded a stoichiometry N of 3.
In assay [3], “StrepII-tagged Wu1 S (soluble SARS-CoV-2 Wuhan-Hu-1 spike, 6P version) (from UniProt P0DTC2 14-1273) (natural protein)” returned a stoichiometry N of 3.

Source of the values: paper PMC13132547.
